Laboratory results taken from PMC4167697.
pKd: −log10 of the molar value. Values joined by “and” are separate entries in the source; they are usually repeats but may differ in a detail not shown here. Identical values can stand only once.

Assays:
[1] = biological target: protein G B1; assay: BLI; parallel sensor kinetics, fitted without RI term (Figure S3A); GB1 on AR2G sensors, IgG as analyte
[2] = biological target: protein G B1; assay: BLI; kinetic titration series, fitted without RI term (Figure S3B); GB1 on AR2G sensors, IgG as analyte
[3] = biological target: protein G B1; assay: BLI; parallel sensor kinetics; GB1 amine-coupled on AR2G sensors, IgG as analyte at 0.03125-0.5 µM on five sensors in parallel; PBS with 0.05% Polysorbat 20, 25°C, 1000 rpm; global 1:1 fit with RI-term
[4] = biological target: protein G B1; assay: BLI; kinetic titration series; GB1 amine-coupled on AR2G sensors, IgG as analyte at 0.03125-0.5 µM in turn on one sensor; PBS with 0.05% Polysorbat 20, 25°C, 1000 rpm; each sensor pair fitted separately, 1:1 kinetic titration series model with RI-term
[5] = biological target: protein G B1; assay: as above; remark: listed apart in the source
[6] = biological target: protein G B1; assay: as above; remark: listed apart in the source
[7] = biological target: protein G B1; assay: as above; remark: listed apart in the source
[8] = biological target: protein G B1; assay: as above; remark: listed apart in the source
[9] = biological target: protein G B1; assay: as above; remark: listed apart in the source
[10] = biological target: protein G B1; assay: as above; remark: listed apart in the source
[11] = biological target: protein G B1; assay: BLI; kinetic titration series; GB1 amine-coupled on AR2G sensors, IgG as analyte at 0.03125-0.5 µM in sequence on one sensor; PBS with 0.05% Polysorbat 20, 25°C, 1000 rpm; 1:1 kinetic titration series model with RI-term; mean of 7 replicates
[12] = biological target: protein G B1; assay: BLI; parallel sensor kinetics; GB1 amine-coupled on AR2G sensors, IgG as analyte at 0.03125-0.5 µM, one sensor for each concentration; PBS with 0.05% Polysorbat 20, 25°C, 1000 rpm; global 1:1 binding model with RI-term; two measurements (#1, #2)

rabbit IgG (ID: ABIN376828; Antibodies-Online) (antibody)
pKd [1]: 6.73 | koff [1]: 0.00317 s⁻¹ | kon [1]: 17000 M⁻¹ s⁻¹ | pKd [2]: 6.97 | koff [2]: 0.00185 s⁻¹ | kon [2]: 17300 M⁻¹ s⁻¹ | koff [3]: 0.00702 s⁻¹ | kon [3]: 45100 M⁻¹ s⁻¹ | pKd [4]: 6.91 | koff [4]: 0.00551 s⁻¹ | kon [4]: 44300 M⁻¹ s⁻¹ | pKd [5]: 6.78 | koff [5]: 0.00476 s⁻¹ | kon [5]: 28700 M⁻¹ s⁻¹ | pKd [6]: 6.79 | koff [6]: 0.00485 s⁻¹ | kon [6]: 29700 M⁻¹ s⁻¹ | pKd [7]: 7.30 | koff [7]: 0.0016 s⁻¹ | kon [7]: 31800 M⁻¹ s⁻¹ | pKd [8]: 7.06 | koff [8]: 0.00601 s⁻¹ | kon [8]: 68500 M⁻¹ s⁻¹ | pKd [9]: 6.58 | koff [9]: 0.00606 s⁻¹ | kon [9]: 22800 M⁻¹ s⁻¹ | pKd [10]: 6.60 | koff [10]: 0.00467 s⁻¹ | kon [10]: 18400 M⁻¹ s⁻¹

rabbit immunoglobulin G (antibody)
pKd [11]: 6.80 | pKd [12]: 6.81 and 6.60
